Tested on: CN[C@@H]1[C@H](O)[C@H](NC)[C@H]2O[C@@]3(O)C(=O)C[C@@H](C)O[C@H]3O[C@@H]2[C@H]1O
Test: purified protein
Conditions: 5 mM ATP, 10 mM MgCl2, 50 mM HEPES pH 7.5, 37°C

With ANT(9)-Ib (Enterococcus faecalis) the Km was 33.56 ± 8.1 µM, the kcat was 2.6 ± 0.2 s⁻¹ and the kcat/Km was 83000 ± 21000 M⁻¹ s⁻¹.

— PMC10269693
